Measured values published in PMC8437434, “Hsp40s play complementary roles in the prevention of tau amyloid formation” (eLife, 2021).

Target: T1, full-length tau (2N4R), C322S (UniProt P10636-8 1-441, C322S)
T1 construct: microtubule-associated protein tau, longest splice isoform 2N4R, with C322S; 15N-labelled for NMR; also called 15N-tau; source: E. coli BL21 (DE3), purified (Ni-NTA, tag cleaved, Superdex 75); not shown: His6, N-terminal, cleaved
Experiment: NMR titration; 1H-15N HSQC-TROSY of 200 µM 15N-tau, tau^4R or tau^4R P301S/P301L alone and with twofold excess (400 µM) of chaperone; intensity ratios I/I0; 50 mM HEPES pH 7.0, 50 mM KCl, 1 mM DTT, 25 °C; no heparin
Conditions: both partners purified

T1 sequence (P10636 other isoform, or with tags, fused parts or gaps C322S | C322S | C322S C322S): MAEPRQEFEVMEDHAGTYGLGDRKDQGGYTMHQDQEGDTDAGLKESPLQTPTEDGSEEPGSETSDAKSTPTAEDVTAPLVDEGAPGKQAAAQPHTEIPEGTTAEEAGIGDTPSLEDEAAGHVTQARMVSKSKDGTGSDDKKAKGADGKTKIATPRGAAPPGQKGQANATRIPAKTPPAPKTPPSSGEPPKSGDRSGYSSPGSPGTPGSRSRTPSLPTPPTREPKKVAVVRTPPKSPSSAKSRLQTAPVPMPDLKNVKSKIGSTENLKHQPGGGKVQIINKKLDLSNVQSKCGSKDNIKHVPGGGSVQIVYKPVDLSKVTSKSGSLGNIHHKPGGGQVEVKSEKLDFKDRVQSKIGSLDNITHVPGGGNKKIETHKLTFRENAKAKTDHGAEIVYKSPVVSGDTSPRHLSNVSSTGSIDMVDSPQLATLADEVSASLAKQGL

binding result: binds
B1: DNAJA2 (natural protein)
chain: not shown
notes: DNAJA2, class A J-domain protein; homodimer (90 kDa dimer as printed); also called class A JDP; Hsp40; source: E. coli BL21 (DE3), purified (Ni-NTA, tag cleaved, Superdex 200); not shown: His6, N-terminal, cleaved
